Results published in FireProtDB (doi:10.1021/bi300982v).

Settings: Thermus thermophilus, pH 7, sodium phosphate 50 mM, transition: 2, reversible: yes, whole UniProt chain shown; for denaturant midpoint (higher = more stable): 25 °C, GdnHCl

B1: Cytochrome c-552 wild type, P04164 (protein)
chain: QADGAKIYAQCAGCHQQNGQGIPGAFPPLAGHVAEILAKEGGREYLILVLLYGLQGQIEVKGMKYNGVMSSFAQLKDEEIAAVLNHIATAWGDAKKVKGFKPFTAEEVKKLRAKKLTPQQVLAERKKLGLK
With B1 as the protein, how does the “denaturant midpoint (higher = more stable)” value (“denaturant midpoint” for short) (absorbance) read?
The value was 3.6 M.

What about the “denaturant midpoint” value (far-UV-CD) of the same protein?
The value was 4.1 M.

What about the “denaturant midpoint” value (heme-CD) of the same protein?
Its value is 3.4 M.

What about the Tm (Thermal, CD) of the same protein?
The Tm was 95 °C.

And the “heat capacity change of unfolding” value (Thermal, CD)?
Its value is 0.31 kcal/mol/K.

What about the “unfolding enthalpy (calorimetric)” value (Thermal, CD) of the same protein?
Its value is 30.4 kcal/mol.

What about the unfolding free energy (Thermal, CD) of the same protein?
The unfolding free energy was 3.11 kcal/mol.
